Source: the supplement of paper PMC10724198
± gives the standard deviation of the averaged measurements.

Legend:
Saccharomyces cerevisiae [1] = assay: protein stability index of tFT-peptide fusion (C-terminal peptide) (PSI (0-1 scale)); higher = more stable (slower turnover); settings: genetic background: wild type; temperature: 30 C
Saccharomyces cerevisiae [2] = assay: as above
Procedure: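 MPS profiling in S. cerevisiae of the tFT-X12 degron library: putative degron peptides plus stable controls, 12 aa, fused to the C-terminus of a sfGFP-mCherry timer. Cells are FACS-sorted into 8 mCherry/sfGFP bins and deep-sequenced. PSI runs from 0 (unstable) to 1 (stable). Backgrounds are wild type, das1Δ and doa10Δ at 30 °C, and wild type, das1Δ, cdc34-1 and cdc53-1 at 37 °C; 2-3 technical replicates each.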

[3] = genetic background: cdc34-1, temperature: 37 C
[4] = genetic background: cdc53-1, temperature: 37 C
[5] = genetic background: das1 deletion, temperature: 30 C
[6] = genetic background: das1 deletion, temperature: 37 C
[7] = genetic background: doa10 deletion, temperature: 30 C
[8] = genetic background: wild type, temperature: 30 C
[9] = genetic background: wild type, temperature: 37 C
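Note: PSI is a weighted mean of sequencing reads over stability bins, variants kept only with over 10 reads, mCherry proximal and sfGFP distal, peptide attached via GGGS linker.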

| Sequence | protein stability index (Saccharomyces cerevisiae [1]) | protein stability index (Saccharomyces cerevisiae [2]; [3]) | protein stability index (Saccharomyces cerevisiae [2]; [4]) | protein stability index (Saccharomyces cerevisiae [2]; [5]) | protein stability index (Saccharomyces cerevisiae [2]; [6]) | protein stability index (Saccharomyces cerevisiae [2]; [7]) | protein stability index (Saccharomyces cerevisiae [2]; [8]) | protein stability index (Saccharomyces cerevisiae [2]; [9]) |
| --- | --- | --- | --- | --- | --- | --- | --- | --- |
| CGPLLVTLVLSM | 0.404 ± 0.0049 | 0.445 ± 0.045 | 0.423 ± 0.02 | 0.305 ± 0.032 | 0.5011 ± 0.0028 | 0.304 ± 0.01 | 0.306 ± 0.018 | 0.476 ± 0.012 |
| CLAWWLGRVWVC | 0.141 ± 0.006 | 0.184 ± 0.018 | 0.225 ± 0.0095 | 0.219 ± 0.027 | 0.364 ± 0.0011 | 0.115 ± 0.011 | 0.0919 ± 0.017 | 0.105 ± 0.0053 |
| CLILGLFSLIFL | 0.482 ± 0.027 | 0.525 ± 0.061 | 0.5644 ± 0.00097 | 0.452 ± 0.018 | 0.561 ± 0.011 | 0.4758 ± 0.0028 | 0.441 ± 0.016 | 0.531 ± 0.056 |
| CLRVSFFFWLFA | 0.351 ± 0.016 | 0.465 ± 0.017 | 0.562 ± 0.0068 | 0.392 ± 0.041 | 0.553 ± 0.0073 | 0.224 ± 0.0084 | 0.263 ± 0.017 | 0.424 ± 0.0084 |
| CRFYIRITRRYS | 0.21 ± 0.025 | 0.491 ± 0.017 | 0.576 ± 0.024 | 0.541 ± 0.041 | 0.584 ± 0.032 | 0.156 ± 0.025 | 0.132 ± 0.033 | 0.255 ± 0.031 |
| CRLLVFGLCVGA | 0.342 ± 0.014 | 0.292 ± 0.012 | 0.332 ± 0.0083 | 0.228 ± 0.046 | 0.419 ± 0.0084 | 0.189 ± 0.0062 | 0.237 ± 0.022 | 0.39 ± 0.0056 |
| CRWHLRIVRGLM | 0.377 ± 0.0026 | 0.5609 ± 0.0048 | 0.665 ± 0.00068 | 0.593 ± 0.01 | 0.6603 ± 0.0027 | 0.29 ± 0.019 | 0.276 ± 0.056 | 0.415 ± 0.019 |
| CSKGLSILLLLL | 0.41 ± 0.0064 | 0.636 ± 0.055 | 0.672 ± 0.028 | 0.469 ± 0.021 | 0.634 ± 0.028 | 0.301 ± 0.018 | 0.321 ± 0.034 | 0.53 ± 0.012 |
| CSRDVFLFIKFL | 0.132 ± 0.02 | 0.391 ± 0.023 | 0.544 ± 0.018 | 0.457 ± 0.0096 | 0.5679 ± 0.002 | 0.0736 ± 0.035 | 0.075 ± 0.019 | 0.127 ± 0.037 |
| CSSLIMIITCVN | 0.199 ± 0.046 | 0.2613 ± 0.00064 | 0.289 ± 0.013 | 0.244 ± 0.031 | 0.4 ± 0.017 | 0.0883 ± 0.023 | 0.115 ± 0.0091 | 0.122 ± 0.027 |
| CTESVYIIRFML | 0.341 ± 0.084 | 0.638 ± 0.045 | 0.661 ± 0.025 | 0.568 ± 0.025 | 0.662 ± 0.02 | 0.222 ± 0.003 | 0.253 ± 0.035 | 0.466 ± 0.029 |
| CVEACVWYNAGL | 0.7382 ± 0.0062 | 0.745 ± 0.046 | 0.782 ± 0.024 | 0.662 ± 0.024 | 0.774 ± 0.027 | 0.6577 ± 0.004 | 0.687 ± 0.031 | 0.764 ± 0.015 |
| CVILVVISGLLG | 0.345 ± 0.078 | 0.166 ± 0.035 | 0.315 ± 0.039 | 0.199 ± 0.039 | 0.3938 ± 0.0035 | 0.178 ± 0.013 | 0.217 ± 0.03 | 0.3491 ± 0.0021 |
| CVPGPRWWYHSA | 0.446 ± 0.0059 | 0.671 ± 0.031 | 0.755 ± 0.015 | 0.685 ± 0.031 | 0.775 ± 0.011 | 0.233 ± 0.0045 | 0.272 ± 0.019 | 0.53465 ± 0.00023 |
| CWFGLVSLFWVV | 0.429 | 0.49 ± 0.051 | 0.52 ± 0.012 | 0.421 ± 0.04 | 0.576 ± 0.0068 | 0.275 ± 0.0067 | 0.299 ± 0.015 | 0.434 ± 0.016 |
| DAIVLGSVVVCR | 0.414 ± 0.026 | 0.515 ± 0.032 | 0.563 ± 0.017 | 0.393 ± 0.029 | 0.5719 ± 0.0051 | 0.342 ± 0.0065 | 0.39 ± 0.038 | 0.55 ± 0.013 |
| DCRFIIFYCVMV | 0.457 ± 0.029 | 0.48 ± 0.022 | 0.5 ± 0.019 | 0.434 ± 0.053 | 0.509 ± 0.019 | 0.454 ± 0.06 | 0.454 ± 0.037 | 0.506 ± 0.019 |
| DDESLVGRWRKV | 0.365 ± 0.11 | 0.647 ± 0.011 | 0.7263 ± 0.00098 | 0.6402 ± 0.0045 | 0.738 ± 0.011 | 0.25 ± 0.0057 | 0.313 ± 0.014 | 0.547 ± 0.019 |
| DFPGDIILRLIA | 0.207 ± 0.11 | 0.576 ± 0.041 | 0.748 ± 0.044 | 0.635 ± 0.014 | 0.728 ± 0.025 | 0.139 ± 0.0097 | 0.155 ± 0.0082 | 0.214 ± 0.069 |
| DLAWAIGRLTKG | 0.568 ± 0.2 | 0.72 ± 0.02 | 0.769 ± 0.033 | 0.654 ± 0.029 | 0.761 ± 0.016 | 0.653 ± 0.011 | 0.652 ± 0.0094 | 0.743 ± 0.013 |
| DLPKAYCIEMIG | 0.328 ± 0.027 | 0.6033 ± 0.0055 | 0.718 ± 0.015 | 0.613 ± 0.034 | 0.7187 ± 0.005 | 0.198 ± 0.029 | 0.215 ± 0.023 | 0.432 ± 0.02 |
| DNLYSLEFMAIR | 0.566 ± 0.19 | 0.719 ± 0.04 | 0.78 ± 0.016 | 0.647 ± 0.021 | 0.7875 ± 0.0042 | 0.655 ± 0.025 | 0.645 ± 0.012 | 0.7796 ± 0.004 |
| DPPRPIMRIHMI | 0.181 ± 0.0027 | 0.553 ± 0.065 | 0.651 ± 0.042 | 0.671 ± 0.059 | 0.719 ± 0.016 | 0.115 ± 0.021 | 0.111 ± 0.015 | 0.171 ± 0.027 |
| DSPRGRCVRLLV | 0.398 ± 0.03 | 0.66041 ± 1.4e-06 | 0.74745 ± 0.00025 | 0.646 ± 0.013 | 0.741 ± 0.017 | 0.253 ± 0.0077 | 0.308 ± 0.0036 | 0.599 ± 0.067 |
| DWCACFFILLLA | 0.152 ± 0.019 | 0.0391 ± 0.0052 | 0.0382 ± 0.012 | 0.117 ± 0.026 | 0.17 ± 0.016 | 0.145 ± 0.0095 | 0.0983 ± 0.018 | 0.111 ± 0.028 |
| FGWLELVWFDLG |  | 0.646 ± 0.0098 | 0.684 ± 0.031 | 0.525 ± 0.03 | 0.703 ± 0.033 | 0.51 ± 0.034 | 0.531 ± 0.024 | 0.68 ± 0.039 |

| Sequence | protein stability index (Saccharomyces cerevisiae [1]) | protein stability index (Saccharomyces cerevisiae [2]; [3]) | protein stability index (Saccharomyces cerevisiae [2]; [4]) | protein stability index (Saccharomyces cerevisiae [2]; [5]) | protein stability index (Saccharomyces cerevisiae [2]; [6]) | protein stability index (Saccharomyces cerevisiae [2]; [7]) | protein stability index (Saccharomyces cerevisiae [2]; [8]) | protein stability index (Saccharomyces cerevisiae [2]; [9]) |
| --- | --- | --- | --- | --- | --- | --- | --- | --- |
| GIFYVRTIWSCG |  | 0.232 ± 0.025 | 0.348 ± 0.0043 | 0.192 ± 0.014 | 0.3813 ± 0.0011 | 0.1446 ± 0.00063 | 0.17 ± 0.017 | 0.332 ± 0.011 |
| GRWGGYVGREWG |  | 0.497 ± 0.045 | 0.522 ± 0.025 | 0.442 ± 0.0056 | 0.482 ± 0.017 | 0.4402 ± 0.00068 | 0.458 ± 0.0072 | 0.461 ± 0.017 |
| GSMGGVGVLGGD |  | 0.544 ± 0.071 | 0.6535 ± 0.0059 | 0.467 ± 0.0086 | 0.5571 ± 0.0043 | 0.486 ± 0.018 | 0.476 ± 0.013 | 0.552 ± 0.018 |
| IGWGGGTWVKMG |  | 0.544 ± 0.0058 | 0.7335 ± 0.0016 | 0.654 ± 0.0079 | 0.769 ± 0.015 | 0.0923 ± 0.022 | 0.106 ± 0.023 | 0.166 ± 0.038 |
| LEDVLFVMVINI |  | 0.4551 ± 0.0027 | 0.542 ± 0.028 | 0.308 ± 0.038 | 0.549 ± 0.035 | 0.346 ± 0.012 | 0.292 ± 0.025 | 0.49 ± 0.03 |
| LLSLLLDPLLCL |  | 0.582 ± 0.024 | 0.624 ± 0.0029 | 0.522 ± 0.026 | 0.634 ± 0.015 | 0.521 ± 0.022 | 0.534 ± 0.024 | 0.6166 ± 0.0013 |
| SDGGVVRGGCRG |  | 0.592 ± 0.083 | 0.787 ± 0.012 | 0.519 ± 0.061 | 0.714 ± 0.1 | 0.549 ± 0.081 | 0.512 ± 0.046 | 0.598 ± 0.016 |
| SVYLYFQVVAYG |  | 0.0652 ± 0.021 | 0.0815 ± 0.058 | 0.0877 ± 0.049 | 0.198 ± 0.02 | 0.0536 ± 0.021 | 0.0724 ± 0.025 | 0.156 ± 0.0094 |
| VWVVRGFLGFGG |  | 0.532 ± 0.068 | 0.526 ± 0.029 | 0.4302 ± 0.0014 | 0.457 ± 0.012 | 0.437 ± 0.0075 | 0.438 ± 0.014 | 0.4411 ± 0.00055 |
| YRPPSPPSPLPP | 0.674 ± 0.007 |  |  |  |  |  |  |  |
| YSCLGFELWGKG | 0.632 ± 0.067 |  |  |  |  |  |  |  |
| YSLQLSTVCCRL | 0.614 ± 0.019 |  |  |  |  |  |  |  |
| YSLSDVAVLAST | 0.629 ± 0.045 |  |  |  |  |  |  |  |
| YSLTFSIHSSCP | 0.697 ± 0.033 |  |  |  |  |  |  |  |
| YSLYVHPPNLYQ | 0.6604 ± 0.0015 |  |  |  |  |  |  |  |
| YSRSSFSIPPPF | 0.7239 ± 0.003 |  |  |  |  |  |  |  |
| YSSLPPAFPNRS | 0.734 ± 0.1 |  |  |  |  |  |  |  |
| YSVPDFIVVSHL | 0.797 ± 0.12 |  |  |  |  |  |  |  |
| YSWRAKGVKRLR | 0.659 ± 0.029 |  |  |  |  |  |  |  |
| YTDVWLPARGSG | 0.689 ± 0.056 |  |  |  |  |  |  |  |
| YTKIIPIFPEQL | 0.631 ± 0.03 |  |  |  |  |  |  |  |
| YVCCMEGFLKPL | 0.619 ± 0.043 |  |  |  |  |  |  |  |
| YVFPYLLRAIPF | 0.601 ± 0.095 |  |  |  |  |  |  |  |
| YVLITGSTIPDN | 0.694 ± 0.026 |  |  |  |  |  |  |  |
| YVVCMNKSSFRG | 0.769 ± 0.042 |  |  |  |  |  |  |  |
| YWVPPDTIKSAI | 0.7362 ± 0.0032 |  |  |  |  |  |  |  |
